Values quoted from earlier work, collected in article PMC4152934.

What was measured:
[1] = target: AdipoR2 (Mus musculus) (UniProt Q8BQS5)
[2] = target: AdipoR1 (Mus musculus) (UniProt Q91VH1)
Chain of UniProt Q91VH1 (Q91VH1 whole entry): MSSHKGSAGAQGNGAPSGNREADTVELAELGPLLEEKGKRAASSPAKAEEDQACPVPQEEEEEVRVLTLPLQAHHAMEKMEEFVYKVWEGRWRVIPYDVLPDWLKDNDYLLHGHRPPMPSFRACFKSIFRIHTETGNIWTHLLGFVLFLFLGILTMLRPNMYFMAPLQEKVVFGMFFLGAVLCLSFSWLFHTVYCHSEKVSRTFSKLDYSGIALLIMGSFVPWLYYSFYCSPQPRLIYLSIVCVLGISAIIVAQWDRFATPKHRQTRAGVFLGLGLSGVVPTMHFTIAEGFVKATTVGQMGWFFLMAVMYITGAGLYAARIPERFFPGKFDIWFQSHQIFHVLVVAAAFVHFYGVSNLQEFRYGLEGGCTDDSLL

Chain of UniProt Q8BQS5 (Q8BQS5 whole entry): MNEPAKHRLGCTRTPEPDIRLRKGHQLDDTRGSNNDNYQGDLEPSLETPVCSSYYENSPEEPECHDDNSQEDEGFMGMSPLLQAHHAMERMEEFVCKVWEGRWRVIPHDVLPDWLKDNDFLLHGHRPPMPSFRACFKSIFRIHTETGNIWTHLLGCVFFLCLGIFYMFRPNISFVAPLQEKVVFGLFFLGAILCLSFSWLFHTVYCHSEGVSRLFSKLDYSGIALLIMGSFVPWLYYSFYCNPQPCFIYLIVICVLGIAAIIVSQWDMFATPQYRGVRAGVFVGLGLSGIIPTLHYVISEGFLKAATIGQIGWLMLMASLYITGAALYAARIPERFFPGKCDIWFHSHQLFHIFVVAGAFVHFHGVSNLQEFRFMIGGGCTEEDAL

Kd [1]: 14.4 nM
Kd [2]: 1.14 nM
Substance: globular adiponectin trimer globular domain (from UniProt Q60994)
